B1: Corticotropin-releasing factor receptor 1 (Homo sapiens), P34998-1 (parent)
chain: MGGHPQLRLVKALLLLGLNPVSASLQDQHCESLSLASNISGLQCNASVDLIGTCWPRSPAGQLVVRPCPAFFYGVRYNTTNNGYRECLANGSWAARVNYSECQEILNEEKKSKVHYHVAVIINYLGHCISLVALLVAFVLFLRLRPGCTHWGDQADGALEVGAPWSGAPFQVRRSIRCLRNIIHWNLISAFILRNATWFVVQLTMSPEVHQSNVGWCRLVTAAYNYFHVTNFFWMFGEGCYLHTAIVLTYSTDRLRKWMFICIGWGVPFPIIVAWAIGKLYYDNEKCWFGKRPGVYTDYIYQGPMILVLLINFIFLFNIVRILMTKLRASTTSETIQYRKAVKATLVLLPLLGITYMLFFVNPGEDEVSRVVFIYFNSFLESFQGFFVSVFYCFLNSEVRSAIRKRWHRWQDKHSIRARVARAMSIPTSPTRVSFHSIKQSTAV
B2: Protein FAM163B (Homo sapiens), P0C2L3 (parent)
chain: MTAGTVVITGGILATVILLCIIAVLCYCRLQYYCCKKDESEEDEEEPDFAVHSHLPPLHSNRNLVLTNGPALYPTASTSFSQKSPQARALCRSCSHCEPPTFFLQEPPEEEEDVLNGGERVLYKSVSQEDVELPPGGFGGLQALNPNRLSAMREAFARSRSISTDV
B3: Ribosomal protein S6 kinase alpha-2 (Homo sapiens), Q15349 (parent)
chain: MDLSMKKFAVRRFFSVYLRRKSRSKSSSLSRLEEEGVVKEIDISHHVKEGFEKADPSQFELLKVLGQGSYGKVFLVRKVKGSDAGQLYAMKVLKKATLKVRDRVRSKMERDILAEVNHPFIVKLHYAFQTEGKLYLILDFLRGGDLFTRLSKEVMFTEEDVKFYLAELALALDHLHSLGIIYRDLKPENILLDEEGHIKITDFGLSKEAIDHDKRAYSFCGTIEYMAPEVVNRRGHTQSADWWSFGVLMFEMLTGSLPFQGKDRKETMALILKAKLGMPQFLSGEAQSLLRALFKRNPCNRLGAGIDGVEEIKRHPFFVTIDWNTLYRKEIKPPFKPAVGRPEDTFHFDPEFTARTPTDSPGVPPSANAHHLFRGFSFVASSLIQEPSQQDLHKVPVHPIVQQLHGNNIHFTDGYEIKEDIGVGSYSVCKRCVHKATDTEYAVKIIDKSKRDPSEEIEILLRYGQHPNIITLKDVYDDGKFVYLVMELMRGGELLDRILRQRYFSEREASDVLCTITKTMDYLHSQGVVHRDLKPSNILYRDESGSPESIRVCDFGFAKQLRAGNGLLMTPCYTANFVAPEVLKRQGYDAACDIWSLGILLYTMLAGFTPFANGPDDTPEEILARIGSGKYALSGGNWDSISDAAKDVVSKMLHVDPHQRLTAMQVLKHPWVVNREYLSPNQLSRQDVHLVKGAMAATYFALNRTPQAPRLEPVLSSNLAQRRGMKRLTSTRL

Variants of: B1
Conditions: with dlg1_human DLG1, Q12959
Target sequence in this assay (Q12959 whole entry, looked up): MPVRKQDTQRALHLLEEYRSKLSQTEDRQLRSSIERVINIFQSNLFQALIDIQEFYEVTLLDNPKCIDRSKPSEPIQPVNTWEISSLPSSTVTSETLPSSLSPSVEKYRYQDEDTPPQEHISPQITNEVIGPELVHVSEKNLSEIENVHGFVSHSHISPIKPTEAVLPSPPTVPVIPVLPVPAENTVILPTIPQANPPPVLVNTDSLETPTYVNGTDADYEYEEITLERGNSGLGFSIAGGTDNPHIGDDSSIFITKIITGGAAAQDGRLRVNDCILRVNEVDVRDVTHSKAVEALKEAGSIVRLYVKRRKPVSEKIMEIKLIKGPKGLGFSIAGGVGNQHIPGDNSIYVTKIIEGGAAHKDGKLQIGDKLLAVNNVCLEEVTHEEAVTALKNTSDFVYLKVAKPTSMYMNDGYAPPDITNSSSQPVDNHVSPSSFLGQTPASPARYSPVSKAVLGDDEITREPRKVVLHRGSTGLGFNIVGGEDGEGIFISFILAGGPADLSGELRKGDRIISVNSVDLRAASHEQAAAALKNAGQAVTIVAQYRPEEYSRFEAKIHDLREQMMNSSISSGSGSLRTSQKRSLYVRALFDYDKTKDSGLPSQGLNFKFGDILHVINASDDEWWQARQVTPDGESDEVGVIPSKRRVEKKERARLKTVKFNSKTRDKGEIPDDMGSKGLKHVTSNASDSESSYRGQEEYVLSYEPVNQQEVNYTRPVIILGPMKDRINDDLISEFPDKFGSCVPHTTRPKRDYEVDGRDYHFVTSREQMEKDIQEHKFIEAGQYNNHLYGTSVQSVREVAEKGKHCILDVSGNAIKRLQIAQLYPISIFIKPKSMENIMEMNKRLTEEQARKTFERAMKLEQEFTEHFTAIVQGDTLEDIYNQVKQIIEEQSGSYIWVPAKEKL

effect of a mutation on the interaction	Variant
increasing interaction strength	MGGHPQLRLVKALLLLGLNPVSASLQDQHCESLSLASNISGLQCNASVDLIGTCWPRSPAGQLVVRPCPAFFYGVRYNTTNNGYRECLANGSWAARVNYSECQEILNEEKKSKVHYHVAVIINYLGHCISLVALLVAFVLFLRLRPGCTHWGDQADGALEVGAPWSGAPFQVRRSIRCLRNIIHWNLISAFILRNATWFVVQLTMSPEVHQSNVGWCRLVTAAYNYFHVTNFFWMFGEGCYLHTAIVLTYSTDRLRKWMFICIGWGVPFPIIVAWAIGKLYYDNEKCWFGKRPGVYTDYIYQGPMILVLLINFIFLFNIVRILMTKLRASTTSETIQYRKAVKATLVLLPLLGITYMLFFVNPGEDEVSRVVFIYFNSFLESFQGFFVSVFYCFLNSEVRSAIRKRWHRWQDKHSIRARVARAMSIPTSPTRVSFHEIKQETAV [S437E;S441E]
increasing interaction strength	MGGHPQLRLVKALLLLGLNPVSASLQDQHCESLSLASNISGLQCNASVDLIGTCWPRSPAGQLVVRPCPAFFYGVRYNTTNNGYRECLANGSWAARVNYSECQEILNEEKKSKVHYHVAVIINYLGHCISLVALLVAFVLFLRLRPGCTHWGDQADGALEVGAPWSGAPFQVRRSIRCLRNIIHWNLISAFILRNATWFVVQLTMSPEVHQSNVGWCRLVTAAYNYFHVTNFFWMFGEGCYLHTAIVLTYSTDRLRKWMFICIGWGVPFPIIVAWAIGKLYYDNEKCWFGKRPGVYTDYIYQGPMILVLLINFIFLFNIVRILMTKLRASTTSETIQYRKAVKATLVLLPLLGITYMLFFVNPGEDEVSRVVFIYFNSFLESFQGFFVSVFYCFLNSEVRSAIRKRWHRWQDKHSIRARVARAMSIPTSPTRVSFHSIKQETAV [S441E]

Variants of: B1
Conditions: with scrib_human SCRIB
Target sequence in this assay (Q14160 whole entry): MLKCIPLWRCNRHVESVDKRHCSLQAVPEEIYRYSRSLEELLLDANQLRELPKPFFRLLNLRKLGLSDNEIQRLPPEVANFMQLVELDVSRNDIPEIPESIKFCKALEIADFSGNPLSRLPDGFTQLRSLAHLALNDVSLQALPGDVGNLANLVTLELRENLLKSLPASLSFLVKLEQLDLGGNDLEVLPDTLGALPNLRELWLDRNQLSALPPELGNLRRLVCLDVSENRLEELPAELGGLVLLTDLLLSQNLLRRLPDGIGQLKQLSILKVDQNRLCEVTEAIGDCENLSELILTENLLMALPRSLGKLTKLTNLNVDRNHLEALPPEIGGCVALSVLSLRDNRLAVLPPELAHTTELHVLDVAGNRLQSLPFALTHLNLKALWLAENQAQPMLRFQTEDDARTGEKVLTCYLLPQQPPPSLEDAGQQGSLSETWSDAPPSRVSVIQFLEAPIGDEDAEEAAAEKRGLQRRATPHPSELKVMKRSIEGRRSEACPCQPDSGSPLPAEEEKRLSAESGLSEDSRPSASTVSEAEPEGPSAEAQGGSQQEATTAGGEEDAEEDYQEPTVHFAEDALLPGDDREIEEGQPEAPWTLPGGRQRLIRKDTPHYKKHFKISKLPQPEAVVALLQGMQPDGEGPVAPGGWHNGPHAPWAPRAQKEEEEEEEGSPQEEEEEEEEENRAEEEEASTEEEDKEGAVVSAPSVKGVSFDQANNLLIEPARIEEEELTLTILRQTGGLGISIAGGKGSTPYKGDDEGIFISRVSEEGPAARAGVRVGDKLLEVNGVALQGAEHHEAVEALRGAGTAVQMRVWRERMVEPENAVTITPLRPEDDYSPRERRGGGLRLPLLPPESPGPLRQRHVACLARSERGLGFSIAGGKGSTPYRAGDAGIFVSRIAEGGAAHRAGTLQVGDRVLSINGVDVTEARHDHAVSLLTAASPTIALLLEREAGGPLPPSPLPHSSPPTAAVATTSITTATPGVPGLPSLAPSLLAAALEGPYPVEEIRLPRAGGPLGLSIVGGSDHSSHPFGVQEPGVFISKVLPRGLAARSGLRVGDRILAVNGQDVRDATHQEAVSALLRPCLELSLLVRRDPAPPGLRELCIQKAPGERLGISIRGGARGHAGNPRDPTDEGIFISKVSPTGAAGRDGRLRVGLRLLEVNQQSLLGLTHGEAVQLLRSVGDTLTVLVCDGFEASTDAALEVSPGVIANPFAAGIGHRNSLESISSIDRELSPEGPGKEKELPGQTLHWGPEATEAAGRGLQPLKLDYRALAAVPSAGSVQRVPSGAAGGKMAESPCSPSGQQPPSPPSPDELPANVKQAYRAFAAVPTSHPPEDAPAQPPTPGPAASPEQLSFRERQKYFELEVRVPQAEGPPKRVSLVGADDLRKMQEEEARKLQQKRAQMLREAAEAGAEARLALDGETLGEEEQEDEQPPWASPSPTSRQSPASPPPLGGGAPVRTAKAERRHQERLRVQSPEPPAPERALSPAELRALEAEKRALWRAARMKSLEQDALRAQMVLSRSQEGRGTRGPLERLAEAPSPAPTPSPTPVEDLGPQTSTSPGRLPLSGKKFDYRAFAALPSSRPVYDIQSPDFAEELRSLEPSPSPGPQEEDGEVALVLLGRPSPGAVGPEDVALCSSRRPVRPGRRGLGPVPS

effect of a mutation on the interaction	Variant
with no effect	MGGHPQLRLVKALLLLGLNPVSASLQDQHCESLSLASNISGLQCNASVDLIGTCWPRSPAGQLVVRPCPAFFYGVRYNTTNNGYRECLANGSWAARVNYSECQEILNEEKKSKVHYHVAVIINYLGHCISLVALLVAFVLFLRLRPGCTHWGDQADGALEVGAPWSGAPFQVRRSIRCLRNIIHWNLISAFILRNATWFVVQLTMSPEVHQSNVGWCRLVTAAYNYFHVTNFFWMFGEGCYLHTAIVLTYSTDRLRKWMFICIGWGVPFPIIVAWAIGKLYYDNEKCWFGKRPGVYTDYIYQGPMILVLLINFIFLFNIVRILMTKLRASTTSETIQYRKAVKATLVLLPLLGITYMLFFVNPGEDEVSRVVFIYFNSFLESFQGFFVSVFYCFLNSEVRSAIRKRWHRWQDKHSIRARVARAMSIPTSPTRVSFHSIKQETAV [S441E]

Variants of: B2
Conditions: with scrib_human SCRIB
Target sequence in this assay (Q14160 whole entry): as the sequence (Q14160 whole entry) above

effect of a mutation on the interaction	Variant
with no effect	MTAGTVVITGGILATVILLCIIAVLCYCRLQYYCCKKDESEEDEEEPDFAVHSHLPPLHSNRNLVLTNGPALYPTASTSFSQKSPQARALCRSCSHCEPPTFFLQEPPEEEEDVLNGGERVLYKSVSQEDVELPPGGFGGLQALNPNRLSAMREAFARSRSIETDV [S163E]

Variants of: B2
Conditions: with scrib_human SCRIB
Remark: another data set of the same source
Target sequence in this assay (Q14160 whole entry): as the sequence (Q14160 whole entry) above

effect of a mutation on the interaction	Variant
disrupting interaction strength	MTAGTVVITGGILATVILLCIIAVLCYCRLQYYCCKKDESEEDEEEPDFAVHSHLPPLHSNRNLVLTNGPALYPTASTSFSQKSPQARALCRSCSHCEPPTFFLQEPPEEEEDVLNGGERVLYKSVSQEDVELPPGGFGGLQALNPNRLSAMREAFARSRSISEDV [T164E]

Variants of: B2
Conditions: with dlg1_human DLG1, Q12959
Target sequence in this assay (Q12959 whole entry, looked up): as the sequence (Q12959 whole entry, looked up) above

effect of a mutation on the interaction	Variant
disrupting interaction strength	MTAGTVVITGGILATVILLCIIAVLCYCRLQYYCCKKDESEEDEEEPDFAVHSHLPPLHSNRNLVLTNGPALYPTASTSFSQKSPQARALCRSCSHCEPPTFFLQEPPEEEEDVLNGGERVLYKSVSQEDVELPPGGFGGLQALNPNRLSAMREAFARSRSISEDV [T164E]

Variants of: B3
Conditions: with dlg1_human DLG1, Q12959
Target sequence in this assay (Q12959 whole entry, looked up): as the sequence (Q12959 whole entry, looked up) above

effect of a mutation on the interaction	Variant
increasing interaction strength	S730E

Variants of: B3
Conditions: with scrib_human SCRIB
Target sequence in this assay (Q14160 whole entry): as the sequence (Q14160 whole entry) above

effect of a mutation on the interaction	Variant
increasing interaction strength	S730E

Variants of: B3
Conditions: with shan1_human SHANK1, Q9Y566
shan1_human SHANK1, Q9Y566, sequence (Q9Y566 whole entry): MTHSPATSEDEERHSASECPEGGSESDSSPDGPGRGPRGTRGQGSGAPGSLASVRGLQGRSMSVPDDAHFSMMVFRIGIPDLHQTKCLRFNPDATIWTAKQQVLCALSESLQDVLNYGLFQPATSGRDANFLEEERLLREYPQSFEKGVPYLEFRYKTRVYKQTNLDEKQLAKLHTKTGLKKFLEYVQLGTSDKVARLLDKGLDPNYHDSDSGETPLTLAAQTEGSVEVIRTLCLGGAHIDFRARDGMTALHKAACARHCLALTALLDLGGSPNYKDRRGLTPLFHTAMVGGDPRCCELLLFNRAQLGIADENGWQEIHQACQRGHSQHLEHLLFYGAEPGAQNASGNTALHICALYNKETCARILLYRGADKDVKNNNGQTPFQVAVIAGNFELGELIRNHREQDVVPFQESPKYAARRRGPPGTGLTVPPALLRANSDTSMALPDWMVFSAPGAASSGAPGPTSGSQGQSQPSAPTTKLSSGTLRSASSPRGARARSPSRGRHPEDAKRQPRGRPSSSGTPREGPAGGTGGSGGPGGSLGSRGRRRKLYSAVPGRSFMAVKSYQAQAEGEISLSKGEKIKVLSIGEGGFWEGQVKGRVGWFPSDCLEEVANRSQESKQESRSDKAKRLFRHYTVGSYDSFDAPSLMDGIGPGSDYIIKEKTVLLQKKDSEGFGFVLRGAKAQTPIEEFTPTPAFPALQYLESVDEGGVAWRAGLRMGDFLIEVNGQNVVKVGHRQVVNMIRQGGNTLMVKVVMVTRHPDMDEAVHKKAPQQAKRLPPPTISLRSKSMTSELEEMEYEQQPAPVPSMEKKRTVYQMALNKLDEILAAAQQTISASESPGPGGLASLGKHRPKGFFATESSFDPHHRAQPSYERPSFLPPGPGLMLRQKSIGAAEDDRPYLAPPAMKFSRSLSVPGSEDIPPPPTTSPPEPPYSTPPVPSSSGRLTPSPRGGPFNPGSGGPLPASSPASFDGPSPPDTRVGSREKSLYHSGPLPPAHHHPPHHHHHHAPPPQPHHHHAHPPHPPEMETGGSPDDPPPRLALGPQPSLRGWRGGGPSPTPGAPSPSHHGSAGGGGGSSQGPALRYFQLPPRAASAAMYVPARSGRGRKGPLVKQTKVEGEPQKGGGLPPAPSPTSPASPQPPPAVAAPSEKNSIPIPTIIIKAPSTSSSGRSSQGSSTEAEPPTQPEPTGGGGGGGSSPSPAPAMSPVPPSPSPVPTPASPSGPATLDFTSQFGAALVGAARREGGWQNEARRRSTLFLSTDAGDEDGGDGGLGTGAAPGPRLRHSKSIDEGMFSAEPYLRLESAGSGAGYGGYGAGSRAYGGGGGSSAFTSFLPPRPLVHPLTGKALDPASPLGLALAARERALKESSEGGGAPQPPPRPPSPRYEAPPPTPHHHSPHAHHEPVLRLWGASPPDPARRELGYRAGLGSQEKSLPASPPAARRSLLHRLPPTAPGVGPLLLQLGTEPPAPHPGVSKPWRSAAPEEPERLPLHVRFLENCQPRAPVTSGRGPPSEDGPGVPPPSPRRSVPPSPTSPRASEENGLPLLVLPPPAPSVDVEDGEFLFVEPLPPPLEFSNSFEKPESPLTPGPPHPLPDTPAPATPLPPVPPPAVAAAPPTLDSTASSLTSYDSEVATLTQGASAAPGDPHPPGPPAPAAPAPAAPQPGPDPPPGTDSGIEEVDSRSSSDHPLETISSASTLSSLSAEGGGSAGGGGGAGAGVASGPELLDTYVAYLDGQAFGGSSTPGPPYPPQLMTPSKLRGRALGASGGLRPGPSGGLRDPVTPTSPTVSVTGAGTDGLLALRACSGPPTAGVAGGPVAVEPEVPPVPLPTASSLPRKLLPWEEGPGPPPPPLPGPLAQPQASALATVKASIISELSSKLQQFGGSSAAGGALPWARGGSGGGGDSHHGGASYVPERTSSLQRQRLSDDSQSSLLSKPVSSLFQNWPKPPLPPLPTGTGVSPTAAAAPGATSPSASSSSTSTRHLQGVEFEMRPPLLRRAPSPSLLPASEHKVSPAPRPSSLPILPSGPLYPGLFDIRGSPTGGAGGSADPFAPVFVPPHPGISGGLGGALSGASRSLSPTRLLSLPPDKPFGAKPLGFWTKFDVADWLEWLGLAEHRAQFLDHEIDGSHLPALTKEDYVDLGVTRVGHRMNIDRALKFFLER

effect of a mutation on the interaction	Variant
decreasing interaction strength	S730E

Variants of: B3
Conditions: with scrib_human SCRIB
Remark: another data set of the same source
Target sequence in this assay (Q14160 whole entry): as the sequence (Q14160 whole entry) above

effect of a mutation on the interaction	Variant
causing an interaction	S730E
